Reference: patent publication US20250034266A1
Read-outs that look alike come from different tables or passages of the source. Values belong to the binder of their own block, whether it stands above or below them.

Columns and labels:
human CCR1 (human) = target: T1, human CCR1 (human) (UniProt P32246); test: FACS on ExpiCHO-S-human CCR1 cells
T1 sequence (looked up): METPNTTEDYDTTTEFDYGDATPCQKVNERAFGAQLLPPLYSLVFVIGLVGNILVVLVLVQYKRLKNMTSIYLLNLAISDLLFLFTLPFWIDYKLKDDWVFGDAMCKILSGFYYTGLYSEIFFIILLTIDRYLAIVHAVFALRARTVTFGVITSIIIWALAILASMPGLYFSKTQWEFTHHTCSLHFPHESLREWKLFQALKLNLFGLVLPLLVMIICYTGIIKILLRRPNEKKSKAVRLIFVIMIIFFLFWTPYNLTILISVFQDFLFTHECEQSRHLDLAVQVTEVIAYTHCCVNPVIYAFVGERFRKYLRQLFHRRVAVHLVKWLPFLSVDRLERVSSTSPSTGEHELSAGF

human CCR4 (human) = target: T2, human CCR4 (human) (UniProt P51679); test: FACS on ExpiCHO-S-human CCR4 cells
T2 sequence (looked up): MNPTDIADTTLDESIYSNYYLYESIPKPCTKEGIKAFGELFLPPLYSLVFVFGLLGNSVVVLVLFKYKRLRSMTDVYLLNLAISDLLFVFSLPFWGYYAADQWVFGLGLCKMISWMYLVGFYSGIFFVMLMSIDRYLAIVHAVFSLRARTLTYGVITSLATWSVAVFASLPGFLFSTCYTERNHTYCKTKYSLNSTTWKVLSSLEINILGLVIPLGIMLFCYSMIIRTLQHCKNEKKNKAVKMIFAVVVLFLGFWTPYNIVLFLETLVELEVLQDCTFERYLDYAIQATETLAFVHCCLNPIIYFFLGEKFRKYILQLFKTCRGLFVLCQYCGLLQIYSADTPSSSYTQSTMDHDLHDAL

human CCR8 (human) [1] = target: human CCR8 (human) (UniProt P51685); test: cell-based or functional assay
human CCR8 (human) [2] = target: human CCR8 (human) (UniProt P51685); test: FACS on CHO-K1-human CCR8 cells
human CCR8 (human) [3] = target: human CCR8 (human) (UniProt P51685); test: FACS on HEK293-human CCR8 cells
human CCR8 (human) [4] = target: human CCR8 (human) (UniProt P51685); test: FACS competition with 4 nM AF647-human CCL1 on human CCR8 cells
human CCR8 (human) [5] = target: human CCR8 (human) (UniProt P51685); test: FACS on CHO-K1-human CCR8 cells; remark: listed apart in the source
[6] = target: cynomolgus CCR8 (cynomolgus) (UniProt G7NYJ2); test: FACS on HEK293-cynomolgus CCR8 cells
[7] = target: cynomolgus CCR8 (cynomolgus) (UniProt G7NYJ2); test: FACS on ExpiCHO-S-cynomolgus CCR8 cells
human CCR8 (human) [8] = target: human CCR8 (human) (UniProt P51685); test: FACS on HEK293-human CCR8 cells; remark: listed apart in the source
human CCR8 (human) [9] = target: human CCR8 (human) (UniProt P51685); test: cell-based or functional assay; remark: listed apart in the source
human CCR8 (human) [10] = target: human CCR8 (human) (UniProt P51685); test: FACS on HEK293-human CCR8 cells; remark: listed apart in the source
human CCR8 (human) [11] = target: human CCR8 (human) (UniProt P51685); test: FACS on CHO-K1-human CCR8 cells; remark: listed apart in the source
human CCR8 (human) [12] = target: human CCR8 (human) (UniProt P51685); test: FACS, competition with AF647-human CCL1 on CHO-K1-human CCR8 cells
human CCR8 (human) [13] = target: human CCR8 (human) (UniProt P51685); test: FACS, competition with CCL1 on CHO-K1-human CCR8 cells
[14] = target: cynomolgus CCR8 (cynomolgus) (UniProt G7NYJ2); test: FACS on HEK293-cynomolgus CCR8 cells; remark: listed apart in the source
[15] = target: cynomolgus CCR8 (cynomolgus) (UniProt G7NYJ2); test: FACS on HEK293-cynomolgus CCR8 cells; remark: listed apart in the source
human CCR8 (human) [16] = target: human CCR8 (human) (UniProt P51685); test: cell-based or functional assay; remark: listed apart in the source
[17] = target: cynomolgus CCR8 (cynomolgus) (UniProt G7NYJ2); test: FACS on HEK293-Cynomolgus CCR8 cells
[18] = target: cynomolgus CCR8 (cynomolgus) (UniProt G7NYJ2); test: FACS on cynomolgus CCR8 cells
human CCR8 (human) [19] = target: human CCR8 (human) (UniProt P51685); test: FACS, competition with AF647-human CCL1 on CHO-K1-human CCR8 cells; remark: listed apart in the source
human CCR8 (human) [20] = target: human CCR8 (human) (UniProt P51685); test: FACS on HuT78 cells (endogenous human CCR8)
[21] = target: cynomolgus CCR8 (cynomolgus) (UniProt G7NYJ2); test: FACS on HEK293-cynomolgus CCR8 cells; remark: listed apart in the source
[22] = target: human CCR8 tagged with ProLink (PK) (human) (UniProt P51685); test: cell-based or functional assay
human CCR8 (human) [23] = target: human CCR8 (human) (UniProt P51685); test: FACS on HEK293-human CCR8 cells; remark: listed apart in the source
human CCR8 (human) [24] = target: human CCR8 (human) (UniProt P51685); test: FACS, competition with AF647-human CCL1 on CHO-K1-human CCR8 cells; remark: listed apart in the source
human CCR8 (human) [25] = target: human CCR8 (human) (UniProt P51685); test: FACS on HuT78 cells (endogenous human CCR8); remark: listed apart in the source
[26] = target: cynomolgus CCR8 (cynomolgus) (UniProt G7NYJ2); test: FACS on HEK293-cynomolgus CCR8 cells; remark: listed apart in the source
human CCR8 (human) [27] = target: human CCR8 (human) (UniProt P51685); test: FACS on HEK293-human CCR8 cells; remark: listed apart in the source
human CCR8 (human) [28] = target: human CCR8 (human) (UniProt P51685); test: FACS, competition with AF647-human CCL1 on HEK293-human CCR8 cells
human CCR8 (human) [29] = target: human CCR8 (human) (UniProt P51685); test: FACS, competition with AF647-human CCL1 on CHO-K1-human CCR8 cells; remark: listed apart in the source
human CCR8 (human) [30] = target: human CCR8 (human) (UniProt P51685); test: FACS, competition with CCL1 on CHO-K1-human CCR8 cells; remark: listed apart in the source
human CCR8 (human) [31] = target: human CCR8 (human) (UniProt P51685); test: FACS, competition with AF647-human CCL1 on CHO-K1-human CCR8 cells; remark: listed apart in the source

Sequence of human CCR8 (human) (P51685 whole entry): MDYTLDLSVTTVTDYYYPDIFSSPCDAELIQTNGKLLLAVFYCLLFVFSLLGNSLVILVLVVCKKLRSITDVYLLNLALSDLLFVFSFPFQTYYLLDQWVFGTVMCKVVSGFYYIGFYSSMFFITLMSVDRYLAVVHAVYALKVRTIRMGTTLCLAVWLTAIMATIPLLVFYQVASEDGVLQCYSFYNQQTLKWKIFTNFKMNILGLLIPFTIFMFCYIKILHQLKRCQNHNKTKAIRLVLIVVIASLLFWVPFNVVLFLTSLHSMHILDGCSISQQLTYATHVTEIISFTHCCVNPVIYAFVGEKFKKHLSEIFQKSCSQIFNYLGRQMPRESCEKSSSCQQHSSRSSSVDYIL
Sequence of cynomolgus CCR8 (cynomolgus) (G7NYJ2 entry or part of it): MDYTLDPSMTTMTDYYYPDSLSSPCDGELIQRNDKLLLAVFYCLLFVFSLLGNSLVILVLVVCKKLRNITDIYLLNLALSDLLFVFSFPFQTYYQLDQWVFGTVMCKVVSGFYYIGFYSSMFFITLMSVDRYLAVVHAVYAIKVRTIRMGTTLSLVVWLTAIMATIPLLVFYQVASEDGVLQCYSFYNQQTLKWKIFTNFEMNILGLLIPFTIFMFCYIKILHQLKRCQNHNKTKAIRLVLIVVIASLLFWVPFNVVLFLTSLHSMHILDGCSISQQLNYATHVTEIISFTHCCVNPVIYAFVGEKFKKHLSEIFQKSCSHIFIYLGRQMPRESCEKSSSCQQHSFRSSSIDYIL
Sequence of human CCR8 tagged with ProLink (PK) (human) (P51685 whole entry): as the sequence (P51685 whole entry) above

Max MFI (human CCR1 (human)): 226 MFI | Max MFI (human CCR4 (human)): 32.8 MFI
B1: Hu149-9 (antibody, human IgG1, V domains shown)
VH: EVQLVESGGGLVQPGGSLKLSCAASGFTFNTYAMNWVRQASGKGLEWVGRIRSKSNFYATAYAASVKGRFTISRDDSKNTAYLQMNSLKTEDTAVYYCTRGRDYGSSYAMDYWGQGTLVTVSS
VL: DIVMTQSPLSLPVTPGEPASISCRSSKSLLHSNANTYLYWFLQKPGQSPQLLIYRMSNLASGVPDRFSGSGSGTDFTLKISRVEAEDVGVYYCMQHLEYPLTFGGGTKVELK

β-arrestin recruitment EC50 (CHO-K1 cells co-expressing PK-tagged human CCR8 and EA) (human CCR8 (human) [1]): 0.288 nM
B2: CCL1 (CN-07, Almac) (ligand, UniProt P22362 24-96, looked up)
chain: KSMQVPFSRCCFSFAEQEIPLRAILCYRNTSSICSNEGLIFKLKRGKEACALDTVGWVQRHRKMLRHCPSKRK

Binding Ratio (GFP + MFI)/(GFP - MFI) (human CCR8 (human) [2]): 158 | EC50 (human CCR8 (human) [2]): 0.124 nM | Max MFI (human CCR8 (human) [2]): 4920 MFI | EC50 (human CCR8 (human) [3]): 0.117 nM | Max MFI (human CCR8 (human) [3]): 2020 MFI | Inhibition Rate (%) (human CCR8 (human) [4]): 100% | EC50 (human CCR8 (human) [5]): 0.0699 nM | Max MFI (human CCR8 (human) [5]): 215000 MFI | EC50 [6]: 9.08 nM | Max MFI [6]: 802 MFI | Max MFI [7]: 27 MFI | EC50 (human CCR8 (human) [8]): 0.119 nM | Max MFI (human CCR8 (human) [8]): 2810 MFI | IC50, inhibition of CCL1 induced β-Arrestin recruitment (human CCR8 (human) [9]): 0.23 nM | Max Inhibition (%), CCL1 induced β-Arrestin recruitment (human CCR8 (human) [9]): 92.6% | EC50 (human CCR8 (human) [10]): 0.197 nM | Max MFI (human CCR8 (human) [10]): 2780 MFI | EC50 (human CCR8 (human) [11]): 0.0823 nM | Max MFI (human CCR8 (human) [11]): 814000 MFI | IC50 (human CCR8 (human) [12]): 0.193 nM | Max Inhibition (%) (human CCR8 (human) [12]): 99.1% | IC50 (human CCR8 (human) [13]): 0.178 nM | Max Inhibition (%) (human CCR8 (human) [13]): 99.6% | Max MFI [14]: 648000 MFI | EC50 [15]: 19.4 nM | Max MFI [15]: 1.72e+06 MFI | IC50, inhibition of CCL1 induced β-Arrestin recruitment (human CCR8 (human) [16]): 0.89 nM | Max Inhibition (%), CCL1 induced β-Arrestin recruitment (human CCR8 (human) [16]): 92.5% | Max MFI [17]: 2010 MFI | Max MFI (human CCR1 (human)): 133 MFI | Binding Ratio (GFP + MFI)/(GFP - MFI) [18]: 7.9 | IC50 (human CCR8 (human) [19]): 0.143 nM | Max Inhibition (%) (human CCR8 (human) [19]): 99.8% | Max MFI (human CCR4 (human)): 6.1 MFI | EC50 (human CCR8 (human) [20]): 0.123 nM | Max MFI (human CCR8 (human) [20]): 60800 MFI | Max MFI [21]: 2340 MFI | IC50, inhibition of CCL1 induced β-Arrestin recruitment, CHO-K1-human CCR8 β-Arrestin cells [22]: 6.54 nM | Max Inhibition (%), CCL1 induced β-Arrestin recruitment, CHO-K1-human CCR8 β-Arrestin cells [22]: 80.3% | IC50, blocking of CCL1 induced cell migration (human CCR8 (human) [1]): 1.25 nM | IC50, blocking of cell migration induced by CCL1 (human CCR8 (human) [1]): 0.278 nM | IC50, inhibition of CCL1 induced β-Arrestin recruitment (human CCR8 (human) [1]): 1.06 nM | Max Inhibition (%), CCL1 induced β-Arrestin recruitment (human CCR8 (human) [1]): 89.9% | Max Inhibition (%), cell migration induced by CCL1 (human CCR8 (human) [1]): 104% | Max inhibition (%), CCL1 induced cell migration (human CCR8 (human) [1]): 117% | EC50 (human CCR8 (human) [23]): 0.0878 nM | Max MFI (human CCR8 (human) [23]): 3890 MFI | IC50 (human CCR8 (human) [24]): 0.243 nM | Max Inhibition (%) (human CCR8 (human) [24]): 96% | Max MFI (human CCR8 (human) [25]): 31900 MFI | Max MFI [26]: 1240 MFI | EC50 (human CCR8 (human) [27]): 0.215 nM | Max MFI (human CCR8 (human) [27]): 5940 MFI | IC50 (human CCR8 (human) [28]): 0.335 nM | Max Inhibition (%) (human CCR8 (human) [28]): 98.8% | IC50 (human CCR8 (human) [29]): 0.198 nM | Max Inhibition (%) (human CCR8 (human) [29]): 99.6% | IC50 (human CCR8 (human) [30]): 0.114 nM | Max Inhibition (%) (human CCR8 (human) [30]): 100% | IC50 (human CCR8 (human) [31]): 0.171 nM | Max Inhibition (%) (human CCR8 (human) [31]): 98.7%
B3: 433H monoclonal antibody (BD Biosciences, #644092) (antibody, from another filing, mouse IgG2a, V domains shown)
VH: EVQLVETGGGLVQPKGSLRLSCAASGFPFNTFAMNWVRQAPGKGLEWLARIRSKSNNYATYYADSVKDRFTISRDDSRRMLYLLMNNVKFEDTAIYYCVRGKENNYGYAMDYWGQGTSVTVSS
VL: DIVMTQAAPSVPVTPGESVSISCRSSQSLLHSNGNTYLYWFLQRPGQSPQLLIYRMSNLASGVPDRFSGSGSGTAFTLRISRVEAEDVGVYYCMQHLEYPFTFGIGTKLELKR
